{
  "source": "paper PMC11956251",
  "about": "(BMC Microbiology, 2025)",
  "biological_target": "T1, His-FtsZ fusion protein (Streptococcus suis SC19, UniProt A0A0H3MXZ7 1-409)",
  "T1 sequence (looked up)": "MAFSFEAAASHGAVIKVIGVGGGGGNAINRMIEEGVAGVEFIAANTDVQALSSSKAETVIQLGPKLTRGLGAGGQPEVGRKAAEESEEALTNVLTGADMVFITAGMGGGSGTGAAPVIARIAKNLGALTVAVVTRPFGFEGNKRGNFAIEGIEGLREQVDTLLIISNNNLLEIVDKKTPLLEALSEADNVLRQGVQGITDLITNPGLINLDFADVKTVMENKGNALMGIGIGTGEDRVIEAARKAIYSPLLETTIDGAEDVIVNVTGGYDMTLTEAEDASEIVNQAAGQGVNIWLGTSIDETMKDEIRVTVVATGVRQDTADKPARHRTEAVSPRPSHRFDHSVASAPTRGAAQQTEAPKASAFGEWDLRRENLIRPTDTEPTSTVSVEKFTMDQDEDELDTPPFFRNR",
  "assay": "BLI",
  "data": [
    {"binder": "SepF labeled with biotin (natural protein, Streptococcus suis SC19, UniProt A4VTL1 1-187, looked up, biotin (biotin labeling kit; sites not stated)) MALKDTFKNLFNYFEVDEVNEVEEQADAYSMPNDRPKMRVANTTVAPVREQQPKVETRREARSESQLQRLHERQQELMTNNNEKEIVKTTIDIKFPKRYEDAPEMVNLLLDNASILIDFQYMSEQQARRCLDYLDGARSVLSGNLKKVSNTMWLLTPVNVTVNIEELRNAGTTTGVADSNFEFDIKR", "values": [
      {"measurement": "Kd", "result": 670, "unit": "pM"}
    ]}
  ]
}
